Source: patent US20240368239A1, “Novel bispecific protein and use thereof” (SL METAGEN, priority 2020, published 2024)
“Also recorded” adds a separate entry of the source.

Legend:
B6 normal mice [1] = assay: Small intestine weight and body weight (GLP-1-Fc homodimer, GLP-2-Fc homodimer, MG12-1, MG12-4); format: in vivo; details: SC twice a week, 4 doses; homodimers 10 nmol/kg, MG12 20 nmol/kg
Excerpt: In addition, the present inventors conducted the same experiment as above while only varying the administered substance, in order to confirm whether the bispecific fusion proteins (MG12-1 and MG12-4) designed in a form other than MG12-5 also increase the small intestine weight and energy absorption rate of experimental animals. Specifically, PBS, 10 nmol/kg GLP-1-Fc homodimer, 10 nmol/kg GLP-2-Fc homodimer, 20 nmol/kg MG12-1, and 20 nmol/kg MG12-4 were subcutaneously administered. The drug was administered twice a week for a total of 4 times for 2 weeks. After 4 doses, the body weight was measured before autopsy, and the small intestine was excised after the autopsy and weighed. After the autopsy, the entire gastrointestinal tract of the mouse was separated, the mesentery and the pancreas were excised, and the area where the ileum and the cecum meet was cut to separate the small intestine and the large intestine. The separated small intestine was perfused and washed with 10% neutral formalin to remove the contents, and was weighed after removing the neutral formalin with an absorbent towel.

GLP-1 receptor = GLP-1 receptor (Homo sapiens, UniProt P43220); details: GLP-1 activity
Method: After culturing the cells in a 37° C., 5% CO2 incubator for about 16 hours, the cells were treated with 20 μL/well of a test solution of various concentrations to be evaluated and allowed to react in a 37° C., 5% CO2 incubator for 5 hours. After the reaction was complete, the plate was treated with Bright-Glo™ assay reagent at 100 μL/well, and then was allowed react at room temperature for 2 minutes. After the reaction was completed, the plate was inserted into a Luminometer and the degree of bioluminescence was measured.

Balb/c-nude mice = assay: PET-MRI tissue distribution of Zr89-labelled proteins; format: in vivo; details: Zr89 label, SC
[2] = In vivo pharmacokinetics profile after subcutaneous administration (GLP-1-Fc ELISA and GLP-2-Fc ELISA); set-up: species or system male SD (Sprague Dawley) rats; details: rat, 1 mg/kg SC
Method: First, each protein was administered to 3 male SD (Sprague Dawley) rats per group at a dose of 1 mg/kg by subcutaneous (SC) route. Before injection and after 0.5, 1, 5, 10, 24, 48, 72, 120, and 168 hours after the injection, blood was collected and stored at room temperature for 30 minutes to aggregate. After centrifuging the aggregated blood at 3,000 rpm for 10 minutes, serum of each sample was collected and stored in a cryogenic freezer. Analyses were performed by an assay designed to specifically detect the GLP-1 site and Fc in the administered protein (GLP-1-Fc ELISA) and an assay designed to specifically detect the GLP-2 site and Fc in the administered protein (GLP-2-Fc ELISA). Specifically, a method of loading a biological sample on a plate coated with an antibody that binds to mouse-derived human immunoglobulin G4 (IgG4) to detect the target protein using a biotinylated anti-GLP-1 antibody (GLP-1-Fc ELISA), and a method of loading a biological sample on a plate coated with a monoclonal antibody that specifically reacts with GLP-2, to detect the target protein using a secondary antibody having HRP conjugated to mouse-derived human immunoglobulin G4 (IgG4) (GLP-2-Fc ELISA) were used. The obtained and prepared serum samples were loaded with appropriate dilutions to be analyzed at a position on a straight line of the standard curve.

B6 normal mice [3] = assay: Fluorescence spectrometry tissue distribution of Cy5.5-labelled substances; format: in vivo
Method: Next, the present inventors performed an experiment in B6 normal mice in order to observe the distribution in each tissue and organ according to the administration of a bispecific fusion protein according to an embodiment of the present invention. Cy5.5 was used as a fluorophore for tracking the distribution after administration of each substance. Buffer exchange was performed for each substance to be administered, MG12-1, MG12-4, and GLP-1Fc homodimer with boric acid buffer (pH 8.5), and with reference to the protocol of the Cy5.5 labeling kit (GE, #PA15605) were allowed to react with an appropriate amount of Cy5.5 overnight under refrigeration conditions. Unreacted Cy5.5 in the reaction-completed substance was removed through the PBS substitution process, and whether Cy5.5 was reacted well was confirmed through the final SDS-PAGE. Each administered substance was diluted with 10% DMSO/PBS to have the same fluorescence intensity using an ELISA plate reader capable of measuring fluorescence intensity before being administered.

[4] = 24 hours after administration, Cy5.5 label

Sequence of GLP-1 receptor (P43220 24-463, species assumed): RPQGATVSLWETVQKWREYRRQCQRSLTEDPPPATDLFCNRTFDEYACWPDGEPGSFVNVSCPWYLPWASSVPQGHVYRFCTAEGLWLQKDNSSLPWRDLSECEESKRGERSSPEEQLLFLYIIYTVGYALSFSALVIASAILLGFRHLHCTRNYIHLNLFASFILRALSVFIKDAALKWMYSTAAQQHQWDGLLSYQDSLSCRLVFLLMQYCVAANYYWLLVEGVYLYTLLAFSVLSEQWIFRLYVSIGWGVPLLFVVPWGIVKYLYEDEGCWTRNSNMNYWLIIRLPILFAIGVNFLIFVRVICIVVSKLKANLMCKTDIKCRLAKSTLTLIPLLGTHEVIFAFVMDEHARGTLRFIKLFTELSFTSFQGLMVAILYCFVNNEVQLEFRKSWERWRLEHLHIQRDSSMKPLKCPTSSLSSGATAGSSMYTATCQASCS

activity reduced due to glycosylation (GLP-1 receptor): about 11 times
B1: MG12-1: Knob/hole Fc heterodimer: GLP-1 (SEQ 1), glycan linker, first fusion protein SEQ 24; GLP-2 (SEQ 17), second fusion protein SEQ 32 (protein)
chain 1: HGEGTFTSDVSSYLEGQAAKEFIAWLVKGRGGGGGSGGGGSGGGGSAKNTTAPATTRNTTRGGEEKKKEKEKEEQEERTHTCPPCPSHTQPLGVFLFPPKPKDTLMISRTPEVTCVVVDVSQEDPEVQFNWYVDGVEVHNAKTKPREEQFNSTYRVVSVLTVLHQDWLNGKEYKCKVSNKGLPSSIEKTISKAKGQPREPQVYTLPPCQEEMTKNQVSLWCLVKGFYPSDIAVEWESNGQPENNYKTTPPVLDSDGSFFLYSRLTVDKSRWQEGNVFSCSVMHEALHNHYTQKSLSLSLGK
chain 2: HGDGSFSDEMNTILDNLAARDFINWLIQTKITDGGGGSGGGGSGGGGSEKEKEEQEERTHTCPPCPSHTQPLGVFLFPPKPKDTLMISRTPEVTCVVVDVSQEDPEVQFNWYVDGVEVHNAKTKPREEQFNSTYRVVSVLTVLHQDWLNGKEYKCKVSNKGLPSSIEKTISKAKGQPREPQVCTLPPSQEEMTKNQVSLSCAVKGFYPSDIAVEWESNGQPENNYKTTPPVLDSDGSFFLVSRLTVDKSRWQEGNVFSCSVMHEALHNHYTQKSLSLSLGK
small intestine weight (B6 normal mice [1]): greater increase in small intestine weight than the GLP-2-Fc homodimer administered group; also recorded: superior effect of increasing small intestine weight
weight change before autopsy (body weight) (B6 normal mice [1]): numerical increase in body weight
distribution to the liver (SUV) (Balb/c-nude mice): reduced or showed no difference compared to Fc
distribution to the small intestine and large intestine (SUV) (Balb/c-nude mice): significantly high compared to that of GLP-1-Fc homodimer and GLP-2-Fc homodimer
AUClast ([2]; GLP-1-Fc ELISA (Table 5)): 13919.8 ± 824.9 ng·h/mL
Cmax ([2]; GLP-1-Fc ELISA (Table 5)): 442.2 ± 20.8 ng/mL
Half-life ([2]; GLP-1-Fc ELISA (Table 5)): 16.5 ± 6.3 h
Tmax ([2]; GLP-1-Fc ELISA (Table 5)): 10 h
AUClast ([2]; GLP-2-Fc ELISA (Table 6)): 78639.0 ± 11205.3 ng·h/mL
Cmax ([2]; GLP-2-Fc ELISA (Table 6)): 1136.7 ± 261.0 ng/mL
Half-life ([2]; GLP-2-Fc ELISA (Table 6)): 43.7 ± 1.8 h
Tmax ([2]; GLP-2-Fc ELISA (Table 6)): 24.0 ± 0.0 h
Average fluorescence intensity, Brain (B6 normal mice [3]; [4]): 489
Average fluorescence intensity, Large intestine (B6 normal mice [3]; [4]): 3702
Average fluorescence intensity, Small intestine (B6 normal mice [3]; [4]): 7320
distribution in the small intestine and the large intestine (B6 normal mice [3]; compared to GLP-1-Fc homodimer): larger
